Experimental findings from patent US20210070881A1 (DENALI THERAPEUTICS, published 2021) are described below.

For assay [1], the target named is T1, recombinant BACE1 (BACE1 extracellular domain, R&D Systems Cat#931-AS) (UniProt P56817 22-457).
T1 construct: extracellular domain; also called BACE1 extracellular domain protein
Nature of the assay: SPR Biacore 8K, antibody captured, BACE1 analyte. As for the experimental part:
The binding affinities of the affinity matured humanized 2H8 variants for BACE1 were determined by surface plasmon resonance using a Biacore™ 8K instrument. […] The binding was monitored for 300 seconds and then dissociation was monitored for 600+ seconds in HBS-EP+ running buffer (GE Healthcare Life Sciences, BR100669). Binding response was corrected by subtracting the RU from a blank flow cell. A 1:1 Langmuir model of simultaneous fitting of kₒₙ and koff was used for kinetics analysis.
Background: In SPR one partner is held on a chip, and binding of the other changes the refractive index at the surface.

Assay [2] concerns the target cellular BACE1 in CHOK1-huAPP cells. The assay is described as follows: cell-based or functional assay.
Assay [3] has as its target T1, recombinant BACE1 (BACE1 extracellular …). Nature of the assay: SPR Biacore T200, IgG captured, BACE1 analyte. As for the experimental part:
The affinity of chimeric IgG antibodies for recombinant BACE1 was determined by surface plasmon resonance using a Biacore™ T200 instrument. Biacore™ Series S CMS sensor chips were immobilized with monoclonal mouse anti-human IgG (Fc) antibody (e.g., using a human antibody capture kit from GE Healthcare). 1 μg/mL of antibody was captured for 1 minute on each flow cell and serial 3-fold dilutions of recombinant BACE1 were injected at a flow rate of 30 μL/min. Each sample was analyzed with a 3-minute association and a 10-minute dissociation. After each injection, the chip was regenerated using 3M MgCl₂. Binding response was corrected by subtracting the RU from a flow cell capturing an irrelevant IgG at similar density. A 1:1 Langmuir model of simultaneous fitting of kₒₙ and koff was used for analysis of kinetics.

T1 sequence (P56817 22-457): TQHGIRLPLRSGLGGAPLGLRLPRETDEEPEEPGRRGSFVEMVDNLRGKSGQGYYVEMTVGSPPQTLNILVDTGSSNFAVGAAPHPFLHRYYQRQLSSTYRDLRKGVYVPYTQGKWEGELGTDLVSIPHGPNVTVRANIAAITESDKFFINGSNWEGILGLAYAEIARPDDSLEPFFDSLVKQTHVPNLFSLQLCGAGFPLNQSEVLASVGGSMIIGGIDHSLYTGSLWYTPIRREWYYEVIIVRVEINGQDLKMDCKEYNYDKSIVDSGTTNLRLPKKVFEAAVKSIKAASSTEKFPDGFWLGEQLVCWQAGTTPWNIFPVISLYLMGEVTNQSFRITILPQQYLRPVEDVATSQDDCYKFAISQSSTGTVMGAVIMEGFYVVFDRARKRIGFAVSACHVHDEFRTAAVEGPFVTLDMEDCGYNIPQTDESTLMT

B1: hu2H8v29.1 (antibody, V domains shown)
VH: QVQLVQSGAEVKKPGASVKVSCKASGYTFTNFWIHWVRQAPGQGLEWMGMIDPSDSYTKYNQKFKARATLTVDTSTSTVYMELSSLRSEDTAVYYCARSGVAFPYWGQGTLVTVSS
VL: DIQMTQSPSSLSASVGDRVTITCKASQDVGRNVAWYQQKPGKSPKSLIYSASHYYSGVPSRFSGSGSGTDFTLTISSLQPEDFATYFCQQYNSYPYTFGQGTKVEIK
notes: captured via human Fc; also called hu2H8_HC6 + hu2H8_LC5.1
Usually Kd stands for the constant that tells how readily two partners part at equilibrium. B1: the dissociation constant Kd in assay [1] was 7.22 nM.

B2: hu2H8v29.6 (antibody, V domains shown)
VH: QVQLVQSGAEVKKPGASVKVSCKASGYTFTNFWIHWVRQAPGQGLEWMGMIDPSDSYTKYNQKFKARATLTVDTSTSTVYMELSSLRSEDTAVYYCARSGVAFPYWGQGTLVTVSS
VL: DIQMTQSPSSLSASVGDRVTITCKASQDVGRNVAWYQQKPGKSPKSLIYSASHLYSGVPSRFSGSGSGTDFTLTISSLQPEDFATYFCQQYNSYPYTFGQGTKVEIK
notes: captured via human Fc; also called hu2H8_HC6 + hu2H8_LC5.6
B2: the Kd in assay [1] is 7.51 nM.

B3: hu2H8v29.8 (antibody, V domains shown)
VH: QVQLVQSGAEVKKPGASVKVSCKASGYTFTNFWIHWVRQAPGQGLEWMGMIDPSDSYTKYNQKFKARATLTVDTSTSTVYMELSSLRSEDTAVYYCARSGVAFPYWGQGTLVTVSS
VL: DIQMTQSPSSLSASVGDRVTITCKASQDVGRNVAWYQQKPGKSPKSLIYSASHRYSGVPSRFSGSGSGTDFTLTISSLQPEDFATYFCQQYQSYPYTFGQGTKVEIK
notes: captured via human Fc; also called hu2H8_HC6 + hu2H8_LC5.8
Turning to B3, the Kd in assay [1] came to 8.1 nM.

B4: hu2H8v29.5 (antibody, V domains shown)
VH: QVQLVQSGAEVKKPGASVKVSCKASGYTFTNFWIHWVRQAPGQGLEWMGMIDPSDSYTKYNQKFKARATLTVDTSTSTVYMELSSLRSEDTAVYYCARSGVAFPYWGQGTLVTVSS
VL: DIQMTQSPSSLSASVGDRVTITCKASQDVGRNVAWYQQKPGKSPKSLIYSASHKYSGVPSRFSGSGSGTDFTLTISSLQPEDFATYFCQQYNSYPYTFGQGTKVEIK
notes: captured via human Fc; also called hu2H8_HC6 + hu2H8_LC5.5
On to B4, for which the Kd in assay [1] turned out to be 8.21 nM.

B5: hu2H8v29.10 (antibody, V domains shown)
VH: QVQLVQSGAEVKKPGASVKVSCKASGYTFTNFWIHWVRQAPGQGLEWMGMIDPSDSYTKYNQKFKARATLTVDTSTSTVYMELSSLRSEDTAVYYCARSGVAFPYWGQGTLVTVSS
VL: DIQMTQSPSSLSASVGDRVTITCKASQDVGRNVAWYQQKPGKSPKSLIYSASHRYSGVPSRFSGSGSGTDFTLTISSLQPEDFATYFCQQYYSYPYTFGQGTKVEIK
notes: captured via human Fc; also called hu2H8_HC6 + hu2H8_LC5.10
On to B5, for which the Kd in assay [1] worked out at 4.84 nM.

B6: hu2H8v29.3 (antibody, V domains shown)
VH: QVQLVQSGAEVKKPGASVKVSCKASGYTFTNFWIHWVRQAPGQGLEWMGMIDPSDSYTKYNQKFKARATLTVDTSTSTVYMELSSLRSEDTAVYYCARSGVAFPYWGQGTLVTVSS
VL: DIQMTQSPSSLSASVGDRVTITCKASQDVGRNVAWYQQKPGKSPKSLIYSASHMYSGVPSRFSGSGSGTDFTLTISSLQPEDFATYFCQQYNSYPYTFGQGTKVEIK
notes: captured via human Fc; also called hu2H8_HC6 + hu2H8_LC5.3
Take B6: the Kd in assay [1] amounted to 6.93 nM.

B7: hu2H8v29.9 (antibody, V domains shown)
VH: QVQLVQSGAEVKKPGASVKVSCKASGYTFTNFWIHWVRQAPGQGLEWMGMIDPSDSYTKYNQKFKARATLTVDTSTSTVYMELSSLRSEDTAVYYCARSGVAFPYWGQGTLVTVSS
VL: DIQMTQSPSSLSASVGDRVTITCKASQDVGRNVAWYQQKPGKSPKSLIYSASHRYSGVPSRFSGSGSGTDFTLTISSLQPEDFATYFCQQYNAYPYTFGQGTKVEIK
notes: captured via human Fc; also called hu2H8_HC6 + hu2H8_LC5.9
In the case of B7, the Kd in assay [1] worked out at 11 nM.

B8: hu2H8v29.7 (antibody, V domains shown)
VH: QVQLVQSGAEVKKPGASVKVSCKASGYTFTNFWIHWVRQAPGQGLEWMGMIDPSDSYTKYNQKFKARATLTVDTSTSTVYMELSSLRSEDTAVYYCARSGVAFPYWGQGTLVTVSS
VL: DIQMTQSPSSLSASVGDRVTITCKASQDVGRNVAWYQQKPGKSPKSLIYSASHRYSGVPSRFSGSGSGTDFTLTISSLQPEDFATYFCQQYSSYPYTFGQGTKVEIK
notes: captured via human Fc; also called hu2H8_HC6 + hu2H8_LC5.7
On to B8, for which, in assay [1], the Kd came out at 4.99 nM.

B9: hu2H8v29.4 (antibody, V domains shown)
VH: QVQLVQSGAEVKKPGASVKVSCKASGYTFTNFWIHWVRQAPGQGLEWMGMIDPSDSYTKYNQKFKARATLTVDTSTSTVYMELSSLRSEDTAVYYCARSGVAFPYWGQGTLVTVSS
VL: DIQMTQSPSSLSASVGDRVTITCKASQDVGRNVAWYQQKPGKSPKSLIYSASHQYSGVPSRFSGSGSGTDFTLTISSLQPEDFATYFCQQYNSYPYTFGQGTKVEIK
notes: captured via human Fc; also called hu2H8_HC6 + hu2H8_LC5.4
In the case of B9, in assay [1], the Kd is 6.53 nM.

B10: hu2H8v29.2 (antibody, V domains shown)
VH: QVQLVQSGAEVKKPGASVKVSCKASGYTFTNFWIHWVRQAPGQGLEWMGMIDPSDSYTKYNQKFKARATLTVDTSTSTVYMELSSLRSEDTAVYYCARSGVAFPYWGQGTLVTVSS
VL: DIQMTQSPSSLSASVGDRVTITCKASQDVGRNVAWYQQKPGKSPKSLIYSASHNYSGVPSRFSGSGSGTDFTLTISSLQPEDFATYFCQQYNSYPYTFGQGTKVEIK
notes: captured via human Fc; also called hu2H8_HC6 + hu2H8_LC5.2
For the molecule B10, the Kd in assay [1] was 8.16 nM.

B11: 1F1 (antibody, human IgG1, V domains shown)
VH: EVQLQQSGAELMKPGASVKLSCKATGYTFIGYWIDWVKQRPGHGLEWIGEILPGGGSTNHNEKFKGKATFTTDTSSNTVYMQLSSLTTEDSAIYYCAREGSYGNYYFDYWGQGTSVTVSS
VL: DIQMTQTPLSLPVSLGDQASISCRSSQSIVHSNGNTYLEWYLQKPGQSPKLLIYKVSNRFSGVPDRFSGSGSGTDFTLKISRVEAEDLGVYYCFQGSHVPYTFGGGTKLEIK
notes: chimeric, human IgG1/kappa; also called Clone 1F1
The koff is a measure of how fast the partners let go of each other. As a reminder, the kon is the rate constant with which the complex forms. Take B11: in assay [2], the “% Max Inhibition” value was 63% and the “Cellular IC50” value came out at 11 nM. Moreover, in assay [3], the Kd is 5 nM, the koff was determined as 0.00024 s⁻¹ and the kon worked out at 49000 M⁻¹ s⁻¹.

B12: 1D2 (antibody, human IgG1, V domains shown)
VH: EVHVKQSGPELKKPGETVTISCKASGYTFTTYGMTWVRQAPGKDLEWMGWINTHSGVPIYADDFKGRFAFSLETSAGTAYLQINNLKNEDTATYFCTRRGRLGHYFDYWGQGTSVTVSS
VL: DIVMTQSQKFMSTSVGDRVSVTCKASQNVGTNVAWYQQKPGQSPKLLIYWASTRHTGVPDRFTGSGSGTDFTLTISNVQSEDLADYFCQQYSSYPYTFGGGTKLELK
notes: chimeric, human IgG1/kappa; also called Clone 1D2
For the molecule B12, in assay [2], the “% Max Inhibition” value was found to be 47% and the “Cellular IC50” value was determined as 4 nM. In assay [3], the Kd amounted to 3.1 nM, the koff was 0.00024 s⁻¹ and the kon turned out to be 78000 M⁻¹ s⁻¹.

B13: 3C11 (antibody, human IgG1, V domains shown)
VH: EVQLQQSGADLMKPGASVKLSCKATGYTFTGYWIEWVKQRPGHGLEWIGEIFPGSVSTNYNEKFKGKATFTADTSSNTAYMQLSSLTTEDSAIYYCARSPIYYDYADYWGQGTTLTVSS
VL: DIVLSQSHKFMSTSVGDRVSITCKASQDVGTAVAWYQQKPGQSPKALIYLASNRHTGVPDRFTGSGSGTDFTLTISNVQSEDLAEYFCQQYNSYPYTFGGGTRLEIK
notes: chimeric, human IgG1/kappa; also called Clone 3C11
Take B13: in assay [2], the “% Max Inhibition” value was found to be 56% and the “Cellular IC50” value amounted to 36 nM. Moreover, in assay [3], the Kd is 61 nM, the koff stood at 0.0013 s⁻¹ and the kon was 21000 M⁻¹ s⁻¹.

B14: 4A4 (antibody, human IgG1, V domains shown)
VH: EVKLMESGPGLVAPSQSLSITCTVSGFSLTSYPINWVRQPPGKGLEWLGVIWTGGSTNYNSALKSRLSISRDNSKSQVFLKMNSLQTDDTARYYCARWDGYFGAFDYWGQGTTVTVSS
VL: DIVMTQTTSSLSASLGDRVTISCRASQDISKYLNWYQQKPDGTVKLLIYYTSRLHSGVPSRFSGSGSGTDYSLTISNLEQEDIATYFCQQSLSLPYTFGGGTRLEIK
notes: chimeric, human IgG1/kappa; also called Clone 4A4
B14: in assay [2], the “% Max Inhibition” value is 53% and the “Cellular IC50” value was determined as 17 nM. In assay [3], the Kd was 15 nM, the koff came to 0.0012 s⁻¹ and the kon turned out to be 83000 M⁻¹ s⁻¹.

B15: 1D7 (antibody, human IgG1, V domains shown)
VH: EVKLMESGPGLVAPSQSLSISCTVSGFSLTSYGVDWVRQPPGKGLEWLGVVWGGGSTNYNSALMSRLSISKDNSKSQVFLKMNSLQTDDTAMYYCAKRDYFGGLNVWGTGTTVTVSS
VL: DIVMTQTTSPLSVSLGDRVTISCRASQDISKYLNWYQQRPDGTVKLLIYYTSRLHSGVPSRFSGSGSGTDYSLTISNLEQEDIATYFCHQGHKIPYTFGGGTKLELK
notes: chimeric, human IgG1/kappa; also called Clone 1D7
As to B15, in assay [2], the “% Max Inhibition” value is 55% and the “Cellular IC50” value is 4 nM. Further, in assay [3], the Kd is 16 nM, the koff was found to be 0.00095 s⁻¹ and the kon is 59000 M⁻¹ s⁻¹.

B16: 2E1 (antibody, human IgG1, V domains shown)
VH: EVQLQQPGTELVRPGTSVKLSCKASGYTFTNFWMHWVKQRPGQGLEWIGVINPSDTYTKFNQKFRGKATLTVDTSSSTAYMQLSSLTSEDSAVYFCARPTVGLDYWGQGTSVTVSS
VL: DIVMTQSQKFMPTSVGDRVSVTCKASQNVGSNVAWYQQKSGQSPKALIYSASHRYSGVPDRFTGSGSGTDFTLTISNVQSEDLAEYFCQQYNSYPYTFGGGTKLEIK
notes: chimeric, human IgG1/kappa; also called Clone 2E1
B16: in assay [2], the “% Max Inhibition” value came to 63% and the “Cellular IC50” value amounted to 34 nM. In assay [3], the Kd is 71 nM, the koff worked out at 0.0013 s⁻¹ and the kon was 18000 M⁻¹ s⁻¹.

B17: 4H10 (antibody, human IgG1, V domains shown)
VH: EIQLQQSGPELKKPGETVKISCKTSGYTFTTYGMTWVKQAPGKGLKWMGWINTYSGVPIYADDFKGRSAFSLETSASTAYLQINNLENEDTATYFCARRGSTAHYFDYWGQGTTVTVSS
VL: DIVLTQSHKFMSTSVGDRVSITCKASQDVSTAVAWYQQKPGQSPKLLIYWASTRHTGVPDRFTGSGSGTDYTLTISSVQAEDLALYYCQQHYSTPYTFGGGTKLELK
notes: chimeric, human IgG1/kappa; also called Clone 4H10
Consider B17, for which, in assay [2], the “% Max Inhibition” value was 46% and the “Cellular IC50” value amounted to 18 nM. For the same molecule, in assay [3], the Kd turned out to be 23 nM, the koff was found to be 0.0022 s⁻¹ and the kon worked out at 96000 M⁻¹ s⁻¹.
